Measurements reported in IntAct's records for PubMed 31046837.

Molecular target: at2a2_mouse Atp2a2 (UniProt O55143)
Sequence (O55143 whole entry): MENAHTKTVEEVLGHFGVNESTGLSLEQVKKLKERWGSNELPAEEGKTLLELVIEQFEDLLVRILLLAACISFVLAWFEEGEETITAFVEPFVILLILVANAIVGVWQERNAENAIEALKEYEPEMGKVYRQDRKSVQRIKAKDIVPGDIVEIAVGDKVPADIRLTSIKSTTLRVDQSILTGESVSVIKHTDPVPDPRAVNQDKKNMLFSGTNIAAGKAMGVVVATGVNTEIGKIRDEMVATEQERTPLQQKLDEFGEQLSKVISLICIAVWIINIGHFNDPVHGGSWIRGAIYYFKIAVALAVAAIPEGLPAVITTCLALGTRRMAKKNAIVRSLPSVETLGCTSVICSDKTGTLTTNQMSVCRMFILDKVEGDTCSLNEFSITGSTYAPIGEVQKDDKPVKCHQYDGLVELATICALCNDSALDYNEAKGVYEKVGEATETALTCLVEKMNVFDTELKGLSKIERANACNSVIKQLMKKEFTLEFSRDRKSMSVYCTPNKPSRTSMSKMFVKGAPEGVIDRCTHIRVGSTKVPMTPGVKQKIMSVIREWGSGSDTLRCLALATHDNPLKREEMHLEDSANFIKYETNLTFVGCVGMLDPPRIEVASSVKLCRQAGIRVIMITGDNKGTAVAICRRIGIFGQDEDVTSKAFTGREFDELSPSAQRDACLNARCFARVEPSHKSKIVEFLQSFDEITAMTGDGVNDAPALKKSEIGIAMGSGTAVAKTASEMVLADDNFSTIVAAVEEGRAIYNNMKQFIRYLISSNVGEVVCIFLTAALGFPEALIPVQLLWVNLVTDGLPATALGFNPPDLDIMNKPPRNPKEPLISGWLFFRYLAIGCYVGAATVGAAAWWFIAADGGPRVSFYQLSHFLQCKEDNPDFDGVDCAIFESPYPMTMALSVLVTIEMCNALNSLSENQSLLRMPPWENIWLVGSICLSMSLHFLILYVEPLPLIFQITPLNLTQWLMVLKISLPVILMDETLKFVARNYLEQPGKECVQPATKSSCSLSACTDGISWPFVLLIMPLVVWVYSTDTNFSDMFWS

Leucine-rich repeat serine/threonine-protein kinase 2 (Homo sapiens), Q5S007 G2019S
effect of a mutation on the interaction: increasing interaction strength
